We go through 36 molecules from patent US10647775B2.

Sequences and labels used below:
B1: bb10 (designed binder)
chain: MGSWAEFKQRLAAIKTRLEALGGSEAELAAFLGEIWAFEMELAAYKGKGNPEVEALGREAAAIRMELQAYRHN
B2: DBDpp of SEQ ID NO: 37 (designed binder)
chain: MGSWLWFKIFLAEIKYFLEALGGSEAELAAFDFEIHAFHVELFAYKGKGNPEVEVLREVAAEIRWDLQAYRHN
B3: DBDpp of SEQ ID NO: 36 (designed binder)
chain: MGSWYEFYNRLYAIEIRLYALGGSEAELAAFEKEIAAFESELQAYKGKGNPEVERLRVRAAKIRVILQAYRHN
B4: DBDpp of SEQ ID NO: 35 (designed binder)
chain: MGSWSEFYNRLDAIESRLLALGGSEAELALFEIQIARFEKVLQAYKGKGNPEVEALRGEARAIFAELYAYRHN
B5: DBDpp of SEQ ID NO: 25 (designed binder)
chain: MGSWHEFHDRLQAIHERLYALGGSEAELAAFEKEIAAFESELQAYKGKGNPEVESLRIAAAHIRQVLQAYRHN
B6: DBDpp of SEQ ID NO: 28 (designed binder)
chain: MGSWVYFKEHLAWIKTELEALGGSEAELAHFEHSIADFEMSLQFYKGKGNPEVEALRKEAAAIRDELQAYRHN
B7: DBDpp of SEQ ID NO: 32 (designed binder)
chain: MGSWIYFKEHLAYIKKELEALGGSEAELAHFESAIAVFESTLQYYKGKGNPEVEALRKEAAAIRDELQAYRHN
B8: DBDpp of SEQ ID NO: 33 (designed binder)
chain: MGSWTYFKEHLAEIKYMLEALGGSEAELAHFEVAIADFEKMLQYYKGKGNPEVEALRKEAAAIRDELQAYRHN
B9: DBDpp of SEQ ID NO: 26 (designed binder)
chain: MGSWNYFKDHLAWIKNSLEALGGSEAELAHFETAIASFERQLQEYKGKGNPEVEALRKEAAAIRDELQAYRHN
B10: DBDpp of SEQ ID NO: 34 (designed binder)
chain: MGSWWLFKDHLAEIKTALEALGGSEAELAHFEMAIAAFEKQLQYYKGKGNPEVEALRKEAAAIRDELQAYRHN
B11: DBDpp of SEQ ID NO: 31 (designed binder)
chain: MGSWHYFKGHLAEIKNHLEALGGSEAELAHFERAIAAFERSLQWYKGKGNPEVEALRKEAAAIRDELQAYRHN
B12: DBDpp of SEQ ID NO: 27 (designed binder)
chain: MGSWLYFKEHLAHIKAWLEALGGSEAELAHFELAIADFEYHLQEYKGKGNPEVEALRKEAAAIRDELQAYRHN
B13: DBDpp of SEQ ID NO: 30 (designed binder)
chain: MGSWHYFKDHLAEIKGLLEALGGSEAELAHFEMAIADFEHNLQYYKGKGNPEVEALRKEAAAIRDELQAYRHN
B14: DBDpp of SEQ ID NO: 29 (designed binder)
chain: MGSWFYFKQHLAWIKSYLEALGGSEAELAHFERAIAAFEQHLQMYKGKGNPEVEALRKEAAAIRDELQAYRHN
B15: DBDpp of SEQ ID NO: 46 (designed binder)
chain: MGSWTIFKEWLAFIKTDLEALGGSEAELAFFEGWIASFEMELQKYKGKGNPEVEALRKEAAAIRDELQAYRHN
B16: DBDpp of SEQ ID NO: 47 (designed binder)
chain: MGSWVMFKWLLADIKSHLEALGGSEAELAFFEGFIAAFETHLQVYKGKGNPEVEALRKEAAAIRDELQAYRHN
B17: DBDpp of SEQ ID NO: 48 (designed binder)
chain: MGSWYAFKDYLADIKGWLEALGGSEAELAFFEIFIARFELELQAYKGKGNPEVEALRKEAAAIRDELQAYRHN
B18: DBDpp of SEQ ID NO: 41 (designed binder)
chain: MGSWFEFQDRLTAINERLSALGGSEAELAAFEKEIAAFESELQAYKGKGNPEVETLRSDAAFIRRFLQAYRHN
B19: DBDpp of SEQ ID NO: 38 (designed binder)
chain: MGSWTEFQSRLDAIHSRLRALGGSEAELAAFEKEIAAFESELQAYKGKGNPEVELLRDDAAFIRHFLQAYRHN
B20: DBDpp of SEQ ID NO: 43 (designed binder)
chain: MGSWYEFNHRLDAISKRLNALGGSEAELAAFEKEIAAFESELQAYKGKGNPEVEELRGDAAFIRHFLQAYRHN
B21: DBDpp of SEQ ID NO: 40 (designed binder)
chain: MGSWYEFQNRLHAIHERLNALGGSEAELAAFEKEIAAFESELQAYKGKGNPEVELLRDDAAFIRHFLQAYRHN
B22: DBDpp of SEQ ID NO: 42 (designed binder)
chain: MGSWYEFESRLDAIHERLHALGGSEAELAAFEKEIAAFESELQAYKGKGNPEVENLRGDAAFIRHFLQAYRHN
B23: DBDpp of SEQ ID NO: 39 (designed binder)
chain: MGSWQEFDDRLNAIKARLQALGGSEAELAAFEKEIAAFESELQAYKGKGNPEVEDLRDDAAFIRRFLQAYRHN
B24: DBDpp of SEQ ID NO: 44 (designed binder)
chain: MGSWFEFENRLHAIVHRLGALGGSEAELAAFEKEIAAFESELQAYKGKGNPEVETLRADAAFIRHYLQAYRHN
B25: DBDpp of SEQ ID NO: 15 (designed binder)
chain: MGSWYEFSMRLWAIDQRLYALGGSEAELAAFEKEIAAFESELQAYKGKGNPEVEALRAKAAYIRWKLQAYRHN
B26: DBDpp of SEQ ID NO: 17 (designed binder)
chain: MGSWYEFGHRLWAIDQRLYALGGSEAELAAFEKEIAAFESELQAYKGKGNPEVEYLRETAAHIRTRLQAYRHN
B27: DBDpp of SEQ ID NO: 12 (designed binder)
chain: MGSWVEFGHRLWAIDQRLYALGGSEAELAAFEKEIAAFESELQAYKGKGNPEVEKLRQRAAFIRFRLQAYRHN
B28: DBDpp of SEQ ID NO: 13 (designed binder)
chain: MGSWVEFANRLWAIDQRLFALGGSEAELAAFEKEIAAFESELQAYKGKGNPEVEHLRDQAAFIRHKLQAYRHN
B29: DBDpp of SEQ ID NO: 14 (designed binder)
chain: MGSWYEFRHRLWAIDQRLYALGGSEAELAAFEKEIAAFESELQAYKGKGNPEVEGLREAAAFIRAKLQAYRHN
B30: DBDpp of SEQ ID NO: 18 (designed binder)
chain: MGSWYEFHYRLHAIDQRLYALGGSEAELAAFEKEIAAFESELQAYKGKGNPEVEELRIKAAFIRDRLQAYRHN
B31: DBDpp of SEQ ID NO: 16 (designed binder)
chain: MGSWFEFNHRLWAINERLYALGGSEAELAAFEKEIAAFESELQAYKGKGNPEVERLRSMAAFIRYKLQAYRHN
B32: DBDpp of SEQ ID NO: 23 (designed binder)
chain: MGSWTEFVGRLAAIEFRLWALGGSEAELAWFEAHIAFFEDYLQWYKGKGNPEVEALREEAGAIMEELKAYRHN
B33: DBDpp of SEQ ID NO: 21 (designed binder)
chain: MGSWTEFTYRLSAIEWRLWALGGSEAELAWFEQKIAFFEDFLQYYKGKGNPEVEALKHEAGAILNELMAYRHN
B34: DBDpp of SEQ ID NO: 20 (designed binder)
chain: MGSWYEFDLRLHAIYDRLVALGGSEAELAAFEKEIAAFESELQAYKGKGNPEVEILRDNAAYIRQMLQAYRHN
B35: DBDpp of SEQ ID NO: 22 (designed binder)
chain: MGSWAEFDHRLHAIRERLHALGGSEAELAAFEKEIAAFESELQAYKGKGNPEVEILRGNAAYIRALLQAYRHN
B36: DBDpp of SEQ ID NO: 24 (designed binder)
chain: MGSWTEFYSRLEAIWVRLQALGGSEAELAMFEDRIAHFEWFLQQYKGKGNPEVEALHEEAIAIRKELAAYRHN

Sequence of PD-L1-Fc (human) (Q9NZQ7 19-239 limits assumed): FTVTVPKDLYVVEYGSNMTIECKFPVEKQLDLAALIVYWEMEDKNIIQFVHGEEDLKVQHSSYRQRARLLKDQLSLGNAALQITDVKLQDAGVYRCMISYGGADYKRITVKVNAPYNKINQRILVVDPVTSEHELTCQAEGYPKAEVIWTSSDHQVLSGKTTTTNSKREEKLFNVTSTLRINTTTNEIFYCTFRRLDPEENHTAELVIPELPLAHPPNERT
Sequence of PD1-Fc (Homo sapiens (Human)) (Q15116 25-167 limits assumed): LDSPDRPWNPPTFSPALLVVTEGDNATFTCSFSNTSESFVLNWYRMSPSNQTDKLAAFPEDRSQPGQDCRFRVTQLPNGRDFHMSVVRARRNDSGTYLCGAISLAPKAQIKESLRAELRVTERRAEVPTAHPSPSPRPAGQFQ
Sequence of CTLA4-Fc (Homo sapiens (Human)) (P16410 37-162 limits assumed): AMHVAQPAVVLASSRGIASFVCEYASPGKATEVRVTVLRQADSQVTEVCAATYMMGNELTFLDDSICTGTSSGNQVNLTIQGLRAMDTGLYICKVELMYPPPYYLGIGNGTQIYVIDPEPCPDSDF

The first experiment deals with IgG Fc (control). In words: phage ELISA of rescued clones on control IgG Fc.
Regarding B1, the ELISA absorbance (average) is 0.067.

Another experiment concerns the target recombinant, biotinylated, Human 4-1BB/TNFRSF9/CD137-Fc (human) (UniProt Q07011). In words: phage ELISA, CD137-Fc against control IgG Fc.
For the molecule B1, the ELISA ratio (target to background) was 5.27.

In a further experiment the target is KIR-Fc. The experiment is described as follows: phage ELISA, target-Fc against non-specific control (IgG1-Fc). (In an ELISA, binding on a coated surface is turned into a signal by an enzyme label.)
Regarding B2, the ELISA ratio (target to background) was 4.17. Still for that read-out and setting: then B3, with 4.24; and B4, with 8.4.

A further experiment concerns the target CTLA4-Fc (Homo sapiens (Human)) (UniProt P16410). The experiment is described as above.
For B5, the ELISA ratio (target to background) turned out to be 2.95.

In the next experiment the target is DR5-Fc (Homo sapiens (Human)) (UniProt O14763). Described as above.
Sequence of DR5-Fc (Homo sapiens (Human)) (O14763 56-182 limits assumed): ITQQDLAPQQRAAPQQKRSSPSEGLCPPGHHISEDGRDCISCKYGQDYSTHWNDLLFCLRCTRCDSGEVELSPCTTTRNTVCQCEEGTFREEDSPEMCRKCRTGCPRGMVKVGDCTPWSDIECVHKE
For the molecule B6, the ELISA ratio (target to background) turned out to be 12.1. The same measure, in the same setting: then B7, with 10.7. On to B8, for which the ELISA ratio (target to background) came to 10.3. Still for that read-out and setting: then B9, with 13; and B10, with 9.75; and B11, with 10.8. On the same count and under the same terms, then B12, with 12.3; and B13, with 11.4; and B14, with 11.8.

A further experiment has as its target PD1-Fc (Homo sapiens (Human)) (UniProt Q15116). The description is as above.
Take B15: the ELISA ratio (target to background) is 17.1. Same read-out and setting: next, B16: 8.13. On the same count and under the same terms, next, B17: 3.29.

The next experiment has as its target PD-L1-Fc (human) (UniProt Q9NZQ7). The experiment is described as above.
Turning to B18, the ELISA ratio (target to background) stood at 6.01.

For B19, the ELISA ratio (target to background) amounted to 8.68. With B20, the ELISA ratio (target to background) turned out to be 2.98. Same read-out and setting: next, B21: 6.34; B22: 4.88. Still for that read-out and setting: next, B23: 7.41. Still for that read-out and setting: then B24, with 2.76.

For a further experiment, the target named is recombinant, biotinylated, Human 4-1BB/TNFRSF9/CD137-Fc (human) (UniProt Q07011). Described as above.
Sequence of recombinant, biotinylated, Human 4-1BB/TNFRSF9/CD137-Fc (human) (Q07011 24-186 limits assumed): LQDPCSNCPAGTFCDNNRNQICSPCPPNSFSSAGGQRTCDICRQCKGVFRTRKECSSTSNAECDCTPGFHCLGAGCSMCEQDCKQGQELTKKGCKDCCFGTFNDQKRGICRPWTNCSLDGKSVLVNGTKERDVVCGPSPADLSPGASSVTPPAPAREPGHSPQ
In the case of B25, the ELISA ratio (target to background) was 12. Same read-out and setting: next, B26: 7.71; B27: 20.6; B28: 16.1. For B29, the ELISA ratio (target to background) was 13. As for B30, the ELISA ratio (target to background) is 7.26.

As for B31, the ELISA ratio (target to background) came out at 11.9.

The target in a further experiment is CD47-Fc (Homo sapiens (Human)) (UniProt Q08722). The experiment is described as above.
Sequence of CD47-Fc (Homo sapiens (Human)) (Q08722 19-139 limits assumed): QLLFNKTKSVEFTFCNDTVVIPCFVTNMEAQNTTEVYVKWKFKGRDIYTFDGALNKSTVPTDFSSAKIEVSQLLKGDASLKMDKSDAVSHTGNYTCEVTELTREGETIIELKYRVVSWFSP
Consider B32, for which the ELISA ratio (target to background) is 8.23. Still for that read-out and setting: next, B33: 12.5; B34: 14.1. As for B35, the ELISA ratio (target to background) was 11.7. The same measure, in the same setting: then B36, with 4.58.

For another experiment, the target named is recombinant, biotinylated, Human 4-1BB/TNFRSF9/CD137-Fc (human) (UniProt Q07011). The experiment is described as follows: phage ELISA of rescued clones.
Regarding B1, the ELISA absorbance (average) worked out at 0.353.
